The record followed here is patent publication US20250002588A1 (DIAGONAL THERAPEUTICS, published 2025).

Positions count from the first letter of the chain named.

Sequences and labels used below:
B1: DGL947 (bispecific antibody, human IgG1, lambda)
heavy: EVQLLESGGGLVQPGGSLRLSCAASGFTFSDYYMNWIRQAPGKGLEWVSSISGGSTYYADSVKGRFTISRDNSENTLYLQMNSLRAEDTAVYYCARDFGVAGWFGQFGMDVWGQGTLVTVSSPLAPEVQLLESGGGLVQPGGSLRLSCAASGFTFSSYWMSWVRQAPGKGLEWVANINQDGSEKYYVDSMRGRFTISRDNSKNTLYLQMNSLRAEDTAVYYCAREYDYWGQGTLVTVSSASTKGPSVFPLAPSSKSTSGGTAALGCLVKDYFPEPVTVSWNSGALTSGVHTFPAVLQSSGLYSLSSVVTVPSSSLGTQTYICNVNHKPSNTKVDKKVEPKSCDKTHTCPPCPAPEAAGAPSVFLFPPKPKDTLYITREPEVTCVVVDVSHEDPEVKFNWYVDGVEVHNAKTKPREEQYNSTYRVVSVLTVLHQDWLNGKEYKCKVSNKALPAPIEKTISKAKGQPREPQVYTLPPSRDELTKNQVSLTCLVKGFYPSDIAVEWESNGQPENNYKTTPPVLDSDGSFFLYSKLTVDKSRWQQGNVFSCSVMHEALHNHYTQKSLSLSPG
light: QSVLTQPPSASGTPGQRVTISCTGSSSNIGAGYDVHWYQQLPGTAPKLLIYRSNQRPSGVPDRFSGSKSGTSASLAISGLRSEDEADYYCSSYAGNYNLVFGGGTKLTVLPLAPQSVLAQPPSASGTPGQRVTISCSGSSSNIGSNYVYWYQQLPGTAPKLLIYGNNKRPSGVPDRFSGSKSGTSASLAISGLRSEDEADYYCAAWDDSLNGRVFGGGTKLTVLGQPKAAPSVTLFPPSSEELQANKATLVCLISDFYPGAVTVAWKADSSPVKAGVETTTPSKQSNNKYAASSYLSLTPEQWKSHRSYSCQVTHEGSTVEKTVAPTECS
B2: DGL949 (bispecific antibody, human IgG1, lambda)
heavy: B1 heavy with Q106Y, F107Y, N178K, Y185N, Y226F, Y228F
light: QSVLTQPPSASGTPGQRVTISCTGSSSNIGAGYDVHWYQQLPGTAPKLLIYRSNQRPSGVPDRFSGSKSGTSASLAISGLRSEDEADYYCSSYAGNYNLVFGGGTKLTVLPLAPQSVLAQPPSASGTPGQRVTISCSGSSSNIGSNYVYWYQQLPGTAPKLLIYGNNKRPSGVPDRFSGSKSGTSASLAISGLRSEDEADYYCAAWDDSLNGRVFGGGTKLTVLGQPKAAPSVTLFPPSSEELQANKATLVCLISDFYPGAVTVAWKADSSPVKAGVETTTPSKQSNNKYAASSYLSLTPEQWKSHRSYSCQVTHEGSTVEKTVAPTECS
B3: DGL1146 (bispecific antibody, human IgG1, lambda)
heavy: EVQLLESGGGLVQPGGSLRLSCAASGFTFSDYYMTWIRQAPGKGLEWVSSISGGSTYYADSRKGRFTISRDNSENTLYLQMNSLRAEDTAVYYCARDFGVAGWFGQYGMDVWGQGTLVTVSSPLAPEVQLLESGGGLVQPGGSLRLSCAASGFTFSSYAMSWVRQAPGKGLEWVANINQDGSEKNYVDSMRGRFTISRDNSKNTLYLQMNSLRAEDTAVYYCAREFDYWGQGTLVTVSSASTKGPSVFPLAPSSKSTSGGTAALGCLVKDYFPEPVTVSWNSGALTSGVHTFPAVLQSSGLYSLSSVVTVPSSSLGTQTYICNVNHKPSNTKVDKKVEPKSCDKTHTCPPCPAPEAAGAPSVFLFPPKPKDTLMISRTPEVTCVVVDVSHEDPEVKFNWYVDGVEVHNAKTKPREEQYNSTYRVVSVLTVLHQDWLNGKEYKCKVSNKALPAPIEKTISKAKGQPREPQVYTLPPSRDELTKNQVSLTCLVKGFYPSDIAVEWESNGQPENNYKTTPPVLDSDGSFFLYSKLTVDKSRWQQGNVFSCSVLHEALHSHYTQKSLSLSPG
light: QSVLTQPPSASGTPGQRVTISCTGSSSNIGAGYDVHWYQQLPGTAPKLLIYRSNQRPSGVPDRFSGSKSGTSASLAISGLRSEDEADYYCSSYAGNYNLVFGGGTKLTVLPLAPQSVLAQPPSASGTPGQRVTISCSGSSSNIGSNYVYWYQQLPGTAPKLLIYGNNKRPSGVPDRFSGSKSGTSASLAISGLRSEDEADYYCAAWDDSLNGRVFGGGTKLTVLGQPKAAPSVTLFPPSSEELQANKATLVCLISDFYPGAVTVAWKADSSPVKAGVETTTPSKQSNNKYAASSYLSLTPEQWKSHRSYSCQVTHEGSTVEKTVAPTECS

This experiment deals with ALK-1/BMPR-2 receptor pair of the PathHunter U2Os dimerization cells (DiscoverX 93-0962C3) (UniProt P37023 22-503; Q13873 27-1038). Put plainly: cell-based or functional assay.
Sequence of ALK-1/BMPR-2 receptor pair of the PathHunter U2Os dimerization cells (DiscoverX 93-0962C3) (P37023 22-503, chain 1 of 2): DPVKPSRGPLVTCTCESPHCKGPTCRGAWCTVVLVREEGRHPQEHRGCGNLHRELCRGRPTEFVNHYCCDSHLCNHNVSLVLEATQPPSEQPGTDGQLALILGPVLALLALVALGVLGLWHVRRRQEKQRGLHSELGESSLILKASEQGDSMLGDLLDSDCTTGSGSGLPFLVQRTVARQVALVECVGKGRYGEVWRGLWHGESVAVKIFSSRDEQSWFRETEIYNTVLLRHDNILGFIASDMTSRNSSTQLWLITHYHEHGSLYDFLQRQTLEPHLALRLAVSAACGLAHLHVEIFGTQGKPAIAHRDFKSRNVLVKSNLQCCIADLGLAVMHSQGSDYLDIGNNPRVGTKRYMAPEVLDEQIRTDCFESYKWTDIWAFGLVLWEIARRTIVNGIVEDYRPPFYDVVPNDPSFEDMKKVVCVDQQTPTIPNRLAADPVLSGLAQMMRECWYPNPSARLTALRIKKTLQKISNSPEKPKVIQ
Sequence of ALK-1/BMPR-2 receptor pair of the PathHunter U2Os dimerization cells (DiscoverX 93-0962C3) (Q13873 27-1038, chain 2 of 2): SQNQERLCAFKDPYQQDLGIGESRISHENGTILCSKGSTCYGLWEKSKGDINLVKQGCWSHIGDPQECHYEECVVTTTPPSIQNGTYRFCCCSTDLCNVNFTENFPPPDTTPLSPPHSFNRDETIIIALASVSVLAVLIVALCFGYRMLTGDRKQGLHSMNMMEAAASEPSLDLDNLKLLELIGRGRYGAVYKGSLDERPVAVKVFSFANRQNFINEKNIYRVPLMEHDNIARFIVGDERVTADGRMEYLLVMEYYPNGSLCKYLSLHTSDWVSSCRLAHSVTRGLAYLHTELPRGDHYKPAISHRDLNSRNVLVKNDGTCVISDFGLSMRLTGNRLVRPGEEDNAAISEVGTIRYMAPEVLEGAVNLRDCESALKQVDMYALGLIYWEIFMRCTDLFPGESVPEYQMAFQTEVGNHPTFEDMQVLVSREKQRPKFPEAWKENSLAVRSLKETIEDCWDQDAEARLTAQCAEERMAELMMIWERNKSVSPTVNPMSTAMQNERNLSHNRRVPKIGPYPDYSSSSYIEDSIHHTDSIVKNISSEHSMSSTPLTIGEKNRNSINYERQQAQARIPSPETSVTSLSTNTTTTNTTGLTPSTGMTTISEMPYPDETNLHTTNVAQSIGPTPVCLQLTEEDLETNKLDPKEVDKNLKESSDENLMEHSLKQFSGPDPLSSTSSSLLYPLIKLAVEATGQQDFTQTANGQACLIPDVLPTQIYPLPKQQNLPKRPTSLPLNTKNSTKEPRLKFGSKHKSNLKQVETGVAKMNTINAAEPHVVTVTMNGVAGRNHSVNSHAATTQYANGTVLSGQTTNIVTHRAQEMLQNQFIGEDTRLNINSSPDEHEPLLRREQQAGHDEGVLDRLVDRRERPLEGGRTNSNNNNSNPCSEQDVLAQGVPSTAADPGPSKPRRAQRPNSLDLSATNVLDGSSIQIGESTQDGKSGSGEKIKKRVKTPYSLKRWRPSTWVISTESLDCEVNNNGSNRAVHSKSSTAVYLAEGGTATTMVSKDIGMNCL
For the molecule B1, the “% Emax BMP9” value came out at 47%.
As for B2, the “% Emax BMP9” value turned out to be 42%.
Next, B3: 78%.
